Measured values taken from publication PMC10955041, “Reverse-engineering the anti-MUC1 antibody 139H2 by mass spectrometry–based de novo sequencing” (Life Science Alliance, 2024).
Ends that are not written are not given here. * marks the point of attachment. Biotin = O=C1N[C@H]2[C@H](CS[C@H]2CCCCC(=O)*)N1

T1: synthetic MUC1 epitope peptide APDTRPAPG (synthetic; human MUC1 VNTR sequence)
T1 construct: also called MUC1 peptide; source: synthetic peptide, bought: GenScript
T1 chain: APDTRPAPG

T2: N-terminally biotinylated synthetic MUC1 peptide biotin-GGS-APDTRPAPG (synthetic; human MUC1 VNTR sequence)
T2 construct: short peptide linker for immobilization to the SPR substrate; occurs in every repeat; also called biotinylated MUC1 peptide; surface-immobilized MUC1 peptide; source: synthetic peptide, bought: GenScript
T2 chain: Biotin-GGSAPDTRPAPG

B1: hybridoma-derived 139H2 IgG (antibody, V domains shown)
VH: QVQLQQSGAELVKPGASVKLSCKASGYTFTNYYMYWVLQRPGQGLEWIGEINPSNGGTTFNEKFKNKATLTVDKSSSTAYMQLNSLTSEDSAVYYCTRSRYGNYVNYGMDYWGQGTSVTVSS
VL: DIVMSQSPSSLAVSVGEKVTMSCKSSQSLLYSNTQKNYLAWYQQKPGQSPKLLIYWASTRESGVPDRFTGSGSGTDFTLTISSVKAENLAVYYCQQYYRYPPTFGGGTKLELK
notes: as the heavy-chain variable domain of m1 (IGHV1-53); as the light-chain variable domain of m1 (IGKV8-30); mouse kappa light-chain constant region; Mouse IgG1, kappa; also called original hybridoma-derived 139H2; 139H2 WT; source: hybridoma culture supernatant (gift, NKI), purified (Protein G Sepharose); copies: 2 + 2
B2: recombinant (reverse-engineered) 139H2 IgG (antibody, V domains shown)
VH: B1 VH
VL: B1 VL
notes: also in PDB 8P6I; standard mouse Ig gamma-1 (IGHG1) constant region, linker and Fc region, UniProt P01868.1; mouse kappa light-chain constant region (kappa light-chain backbone); Mouse IgG1, kappa; also called synthetic recombinant 139H2; recombinant 139H2; source: HEK293 cells (ImmunoPrecise Antibodies), culture supernatant, purified (HisTrap Excel); copies: 2 + 2
B3: recombinant 139H2 Fab fragment (Fab, V domains shown)
VH: B1 VH
VL: B1 VL
notes: as the heavy-chain variable domain of m1 (IGHV1-53); mouse Ig gamma-1 (IGHG1) Fab constant region; as the light-chain variable domain of m1 (IGKV8-30); mouse kappa light-chain constant region, as in m1; also called monovalent Fab fragment; anti-MUC1 Fab; source: HEK293 cells (ImmunoPrecise Antibodies), culture supernatant, purified (HisTrap Excel, Superdex 200 SEC)

Tests used:
Details in all cases: both partners purified
[1] = target: T3, MUC1 reporter construct, STn glycans (Homo sapiens (by repeat sequence), UniProt P15941, O-glycans of STn structure; 5 O-glycosylation sites); assay: far-Western, overlay or dot blot; immunoblot of MUC1 reporter constructs (10 ng per well, boiled in Laemmli buffer, 10% SDS gel, PVDF); 139H2 antibodies 1:1,000 in TSMT with 1% BSA, 1 h at RT; band intensities compared with a His-tag blot
T3 construct: also called MUC1 STn fragment; MUC1-STn; source: engineered HEK293 cells, gift from Christian Büll (Copenhagen Center for Glycomics), in PBS
T3 sequence (P15941 whole entry, looked up, the tested form may be a part): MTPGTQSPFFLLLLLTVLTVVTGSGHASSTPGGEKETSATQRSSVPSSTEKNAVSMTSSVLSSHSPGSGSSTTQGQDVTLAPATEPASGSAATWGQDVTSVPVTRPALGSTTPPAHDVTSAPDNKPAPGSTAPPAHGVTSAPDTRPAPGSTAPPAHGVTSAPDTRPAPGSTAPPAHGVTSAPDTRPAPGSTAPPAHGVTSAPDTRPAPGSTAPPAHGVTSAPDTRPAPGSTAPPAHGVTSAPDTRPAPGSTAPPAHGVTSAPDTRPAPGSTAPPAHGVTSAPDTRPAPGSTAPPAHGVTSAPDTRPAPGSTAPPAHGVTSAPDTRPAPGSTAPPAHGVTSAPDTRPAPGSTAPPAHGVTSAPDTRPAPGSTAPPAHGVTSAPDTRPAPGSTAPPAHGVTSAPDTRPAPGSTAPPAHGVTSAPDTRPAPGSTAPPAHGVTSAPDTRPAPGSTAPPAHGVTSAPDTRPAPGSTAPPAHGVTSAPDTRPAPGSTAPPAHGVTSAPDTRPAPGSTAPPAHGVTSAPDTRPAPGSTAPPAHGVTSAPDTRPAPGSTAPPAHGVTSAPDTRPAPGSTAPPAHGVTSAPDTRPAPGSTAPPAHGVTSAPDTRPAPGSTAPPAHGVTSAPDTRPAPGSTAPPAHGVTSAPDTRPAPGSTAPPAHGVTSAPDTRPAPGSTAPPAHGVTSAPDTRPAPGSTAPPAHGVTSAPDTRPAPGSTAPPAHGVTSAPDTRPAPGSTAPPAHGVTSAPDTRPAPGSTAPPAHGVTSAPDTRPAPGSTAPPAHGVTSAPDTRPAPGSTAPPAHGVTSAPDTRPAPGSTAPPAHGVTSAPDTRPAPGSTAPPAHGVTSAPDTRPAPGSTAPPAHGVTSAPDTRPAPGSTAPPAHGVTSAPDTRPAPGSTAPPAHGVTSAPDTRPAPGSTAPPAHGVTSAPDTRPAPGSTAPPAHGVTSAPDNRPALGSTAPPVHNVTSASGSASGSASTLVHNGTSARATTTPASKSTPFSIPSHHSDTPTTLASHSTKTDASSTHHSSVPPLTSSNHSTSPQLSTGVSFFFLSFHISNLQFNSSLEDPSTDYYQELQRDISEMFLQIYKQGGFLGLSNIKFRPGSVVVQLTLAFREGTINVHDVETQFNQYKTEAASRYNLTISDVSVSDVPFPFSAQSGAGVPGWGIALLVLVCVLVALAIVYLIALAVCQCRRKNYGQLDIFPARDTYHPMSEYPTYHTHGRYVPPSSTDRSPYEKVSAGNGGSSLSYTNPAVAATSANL

[2] = target: T4, MUC1 reporter construct, Tn glycans (Homo sapiens (by repeat sequence), UniProt P15941, O-glycans of Tn structure; 5 O-glycosylation sites); assay: as above
T4 construct: also called MUC1 Tn fragment; MUC1-Tn; source: engineered HEK293 cells, gift from Christian Büll (Copenhagen Center for Glycomics), in PBS
T4 sequence (P15941 whole entry, looked up, the tested form may be a part): as above

[3] = target: T5, MUC1 reporter construct, WT Core 2/ST glycans (Homo sapiens (by repeat sequence), UniProt P15941, O-glycans of WT Core 2/ST structure; 5 O-glycosylation sites); assay: as above
T5 construct: also called MUC1 WT fragment; MUC1-WT; source: engineered HEK293 cells, gift from Christian Büll (Copenhagen Center for Glycomics), in PBS
T5 sequence (P15941 whole entry, looked up, the tested form may be a part): as above

[4] = target: T6, MUC1 reporter construct, DiST glycans (Homo sapiens (by repeat sequence), UniProt P15941, O-glycans of DiST structure; 5 O-glycosylation sites); assay: as above
T6 construct: also called MUC1 DiST fragment; MUC1-DiST; source: engineered HEK293 cells, gift from Christian Büll (Copenhagen Center for Glycomics), in PBS
T6 sequence (P15941 whole entry, looked up, the tested form may be a part): as above

[5] = target: T1, synthetic MUC1 epitope peptide APDTRPAPG; assay: crystal structure; Fab and peptide mixed 1:2.5, 3.8 mg/ml in 50 mM Tris pH 8.0, 150 mM NaCl; sitting drop at 20°C; 2.5 Å
[6] = target: T2, N-terminally biotinylated synthetic …; assay: SPR; biotinylated peptide immobilised on a streptavidin chip (P-Strep), IBIS-MX96; 150 mM NaCl, 25 mM Hepes, 0.005% Tween-20; Fab as analyte, 10 twofold dilutions from 7.88 uM, kinetic titration without regeneration, 6-min association; equilibrium data fitted to a one-site (Langmuir) model

Row | Binder | binding result [1] | binding result [2] | binding result [3] | binding result [4] | binding result [5] | Kd [6]
1 | B1 | binds | binds | binds | binds | – | –
2 | B2 | binds | binds | binds | binds | – | –
3 | B3 | – | – | – | – | binds | 4.5 µM
